Reference: the nanobody polyreactivity screen of Harvey et al. (2022)

Assay: yeast display, Sf9 membrane polyspecificity reagent, FACS + sequencing; frameworks hold sequencing errors
Outline: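 Galactose induction of a Saccharomyces cerevisiae BJ5465 synthetic nanobody display library ran 36–48 hours. The cells were then stained for 1 hour at 4 °C with 10% biotinylated, detergent-solubilized Sf9 membrane reagent, pulled down on streptavidin microbeads and FACS-sorted into low and high (top ~1%) gates on expression and reagent-binding fluorescence. Labels for polyreactivity follow the gate of origin.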

Sequence | polyreactivity (PSR sort gate)
QVQLVESGGGLVQAGGSLRLSAATGSTLAGKTMGWYRQASRKERELVAAINDSGGSTYYADSVKGRFTISRDNAKNSVYLQMNSLKPEDTAVYYCNADGYAYIEDGYDYWGQCTQVTVSS | low polyreactivity
QVQLVESGGGLVQAGGSLRLSCAASGFIIRTYAMGWYRQAPGKERELVAAITGRGGTTYYADSVKGRFTISRDNAKNTVDLQMNSLKPEDTAVYYCAARSRDYNYNPYDYWGQGTQVTVSS | high polyreactivity
QVQLVESGGGLVQAGGSLRLSCAASGSIFGKYAMGWYRQAPGKERELVAAISYSGGSTYYADSVKGRFTISRDNAKNTVYLQMNSLKPEDTAVYYCAVRGWGSAGKYDYWGQGTQVTVSS | high polyreactivity
QVQLVESGGGLVQAGGSLRLSCAASGSTFGGNAMGWYRPAPGKERELVAGITTGGTTNYADSVKGRFTISRDNAKNTVYLQMISLIPEDTAVYYCAAGPSSSLTLYDYWGQGTQVTVSS | low polyreactivity
QVQLVESGGGLVQAGGSLRLSCAASVSTFRWYAMGWYRQAPGKERELVAAISWSGSTTYYADSVKGRFTISRDNAKNTVYLQMNSLKPEDTAVYYCAAEVVFFGWNYDYWGQGTQVTVSS | high polyreactivity
QVQLVESGGGLVQAGGSLRLSCAASGRILHEYAMGWYRQAPGKERELVAAITFSGTSTYYADSVKGRFTISRDNAKNTVYLQMNSLKPEDTAVYYCAADTYGGSRDYWGQGTQVTVSS | low polyreactivity
QVQLVESGGGLVQAGGSLRLSCAASGRTFSVYAMGWYRQAPGKERELVAAINRGGSTNYADSVKGRFTISRDNAKNTVYLQMNSLKPEDTAVYYCAATYYWGRKAGFDYWGQGTQVTVSS | low polyreactivity
QVQLVDSGGGLVQAGGSLRLTCAASGIIFRLYGMGWYRQAPGKEREFVATITWRGGRTNYADSVKGRFTISRDNAKNTVYLQMNSLKPEDTAVYYCAKVVRYARSNEYDSWGQGTQVTVSS | low polyreactivity
QVQLVESGGGLVQAGGSLRLSCAASGSIFPSYAMGWYRQAPGKERELVAAISSSGGSTYYADSVKGRFTISRDNAKNTVYLQMNSLKPEDTAVYYCATRYRRWSTVVQDDYWGQGTQVTVSS | low polyreactivity
QVQLVESGGGIVQAGGSLRLSCAASVFTFLHNTMGWYRQAPGKERELVAAISIGGRTYYADSVKGRFTISRDIAKKTVYLQMNSLKPEDTAVYYCAKLSGGQSPGYDYWGQGTQVTVSS | high polyreactivity
QVQLVETGGGLVQAGGSLRLSCAASGLIFVSNAMGWYIQAPGKVRELVAAISKSVGRTYYADSVKGRFTISRDNEKNTVYLQMNSLQPEDTAVYYCAARSRVSPRYDYWGQGTQVTVSS | high polyreactivity
QVQLVESGGGLVQAGGSLRLSCAASGSIFKGYAMGWYRQAPGKERELVAAISIRGGSTYYADSVKGRFTISRDNAKNTVYLQMNSLKPEDTAVYYCAASSKRKYLYNYWGQGTQVTVSS | high polyreactivity
QVQLVESGGGIVQAGGSLRLSCAASGSIFSKYAMGWYRQAPGKERELVATISSSVGSTYYADSVKGRFTISRDNAKNTVYLQMNSLKPEDTAVYYCAARPDYEYGSHYRGGYWGQGTQVSVSS | low polyreactivity
QVQLVESGGGLVQAGGSLRLSCAASGRTFDYNAMGWSRQAPGKERELVAAISSSGGSTYYADSVKGRFTISRDNAKNTVYLQMNSLKPEDTAVYYCATLYPRKSIYYYWGQGTQVTVSS | high polyreactivity
HVQLVESGGGLVQAGGSLRLSCAASGRTLYRNAMGWYRQAPGKERELVARITWSGASTYYADYVKGRFTISRDNAKNTVYLQMNSLKPEVTAVYYCAAQYLSRRYGPYYTYNYWGLGTQVTVSS | high polyreactivity
QVQLVESGGGLVQAGGSRRLSCAASGCILRDNAMGWYRQAPGKEREVVAAISYSGDLTYYADSVKGRFTISRDNAKNTVYLQMNSLIPEDTAVYDCAALYPKVRGYRSDDLWGQGTQVTVSS | high polyreactivity
QVQLQESGGGVQAGGSLRLSCAASGSISAPILMGWYRQAPGKERELVAGIGGGANTYYADSVKGRFTVSRDNAKYTVYLQMNSLKPEDTAVYYCAAGDYYWTNFGYWGQGTQVTASS | high polyreactivity
